From PMC5714209 (Nucleic Acids Research, 2017)

Molecular target: the molecule itself
Experiment: SEC

B1: full-length APOBEC3B (enzyme)
chain: not shown
stoichiometry N: 4
